Measured values taken from patent publication US20260174875A1 (Novo Nordisk A/S, priority 2023, published 2026).
Numbered stars: 1 amine (or outer) side, 2 acyl side, 3 side chain; on linkers, the order of the positions; unused ones are H or OH. Square brackets hold non-standard residues; d marks the D form. Side chains are listed from the residue outwards. * marks the point of attachment. C20 diacid = O=C(O)CCCCCCCCCCCCCCCCCCC(=O)*; C18 diacid = O=C(O)CCCCCCCCCCCCCCCCC(=O)*; C16 diacid = O=C(O)CCCCCCCCCCCCCCC(=O)*; γGlu = O=C(O)[C@H](CCC(=O)[*:2])N[*:1]; Chem. 28 = not defined here; AEEA = NCCOCCOCC(=O)O; Aib = CC(C)(N)C(=O)O

Experiments:
[1] = Chemical stability assessment in formulation (UPLC-UV-MS purity loss at 37° C.); assay type: physicochemical; settings: 8 mM phosphate buffer pH 7.4, 1 mg/mL, 2 weeks
Procedure: The assay was performed to investigate the extend of chemical degradation in vitro over time upon incubation at 37° C. for a period of 2 weeks.
Peptide solutions were prepared by dissolving freeze-dried powder in 8 mM phosphate buffer pH 7.4 to a target of 1 mg/mL. The pH of peptide solutions was adjusted to 7.4 with 0.02 M HCl or 0.02 M NaOH. Samples were filled in Agilent HPLC vials with fixed insert. Vials were capped to prevent evaporation. The HPLC vials were incubated at 37° C. and samples were withdrawn at different time points over a period of 2 weeks, flash frozen at −80° C., and stored at −20° C. until analysis.
A flow-rate of 100 μL/min was delivered with a Binary solvent manager pump having 0.1% formic acid in water as solvent A and 0.1% formic acid in acetonitrile as solvent B. Gradient elution was carried out using 20% B from 0 to 2 min followed by 20 to 50% B from 2 to 20 min in a total run time of 30 min.

human GLP-1 receptor [2] = target: T1, human GLP-1 receptor (human, UniProt P43220 24-463); experiment: cell-based or functional assay
human GIP receptor [3] = target: T2, human GIP receptor (human, UniProt P48546 22-466); experiment: cell-based or functional assay
T2 sequence (looked up): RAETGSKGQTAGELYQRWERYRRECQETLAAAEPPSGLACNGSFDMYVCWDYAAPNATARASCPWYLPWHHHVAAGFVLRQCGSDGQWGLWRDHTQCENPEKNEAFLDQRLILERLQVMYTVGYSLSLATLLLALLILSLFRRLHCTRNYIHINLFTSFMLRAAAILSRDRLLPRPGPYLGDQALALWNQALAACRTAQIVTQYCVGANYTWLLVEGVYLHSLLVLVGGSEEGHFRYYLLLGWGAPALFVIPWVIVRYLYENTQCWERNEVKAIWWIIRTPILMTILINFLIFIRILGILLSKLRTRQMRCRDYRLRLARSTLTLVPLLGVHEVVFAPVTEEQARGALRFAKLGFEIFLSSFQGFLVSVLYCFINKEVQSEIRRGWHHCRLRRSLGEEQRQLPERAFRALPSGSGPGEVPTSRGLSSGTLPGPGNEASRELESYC

[4] = target: T3, human amylin-3(a) receptor (human, UniProt P30988 25-474; O60896 24-148); experiment: cell-based or functional assay
T3 sequence (looked up) 1: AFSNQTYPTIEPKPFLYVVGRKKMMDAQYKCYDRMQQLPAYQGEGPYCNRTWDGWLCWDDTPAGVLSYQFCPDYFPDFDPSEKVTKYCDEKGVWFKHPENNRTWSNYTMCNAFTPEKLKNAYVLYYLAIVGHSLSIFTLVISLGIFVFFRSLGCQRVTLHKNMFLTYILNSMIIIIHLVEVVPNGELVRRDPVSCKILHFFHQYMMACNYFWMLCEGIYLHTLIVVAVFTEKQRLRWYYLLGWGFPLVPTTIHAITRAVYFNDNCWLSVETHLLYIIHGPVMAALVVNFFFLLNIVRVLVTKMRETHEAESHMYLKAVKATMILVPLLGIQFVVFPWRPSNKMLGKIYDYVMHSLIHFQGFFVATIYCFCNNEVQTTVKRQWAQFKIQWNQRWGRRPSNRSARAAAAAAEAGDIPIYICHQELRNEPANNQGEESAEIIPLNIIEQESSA
T3 sequence (looked up) 2: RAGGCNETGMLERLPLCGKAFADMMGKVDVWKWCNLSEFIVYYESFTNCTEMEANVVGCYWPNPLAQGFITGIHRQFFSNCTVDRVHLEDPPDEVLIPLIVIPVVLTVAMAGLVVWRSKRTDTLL

human GLP-1 receptor [5] = target: T1, human GLP-1 receptor; experiment: cell-based or functional assay; remark: listed apart in the source
human GIP receptor [6] = target: T2, human GIP receptor; experiment: cell-based or functional assay; remark: listed apart in the source
[7] = target: T3, human amylin-3(a) receptor; experiment: cell-based or functional assay; remark: listed apart in the source

Row | Molecule | Purity loss per week at 37° C. [1] | hGLP-1R Potency, no HSA, EC50 [pM] (human GLP-1 receptor [2]) | hGIPR Potency, no HSA, EC50 [pM] (human GIP receptor [3]) | hAMYR3 Potency, no HSA, EC50 [pM] [4] | hGLP-1R Potency, 1% HSA, EC50 [pM] (human GLP-1 receptor [5]) | hGIPR Potency, 1% HSA, EC50 [pM] (human GIP receptor [6]) | hAMYR3 Potency, 1% HSA, EC50 [pM] [7]
1 | Compound 14 (peptide) peptide: H[Aib]HGTFTSDYSILLEEQAAREFIEWLLAGGPSK([AEEA-AEEA-γGlu-C18 diacid])GAPPPSGGGGASELSTAALGRLSAELHRLATLPRTETGSGSP-NH2 | – | 2.05 pM | 5.84 pM | 2.21 pM | 75.9 pM | 254 pM | 33.4 pM
2 | Compound 12 (peptide) peptide: H[Aib]HGTFTSDYSILLEEQAAREFIEWLLAGGPSK([AEEA-AEEA-γGlu-C16 diacid])GAPPPSGGGEASELSTAALGRLSAELHELATLPRTETGSGSP-NH2 | – | 0.8 pM | 2.62 pM | 6.23 pM | 10.2 pM | 59.1 pM | 55 pM
3 | Compound 26 (reading uncertain) peptide: Y[Aib]EGTFTSDYSILLEEQAAREFIEWLLAGGPSK(Chem. 28)GEASELSTAALGRLSAELHELATLPRTETGSGSP-NH2 | – | 20.7 pM | 1.75 pM | 11.8 pM | 1680 pM | 558 pM | 349 pM
4 | Compound 16 (peptide) peptide: H[Aib]HGTFTSDYSILLEEQAAREFIEWLLAGGPSK([AEEA-AEEA-γGlu-C20 diacid])GAPPPSGGGEASELSTAALGRLSAELHELATLPRTETGSGSP-NH2 | – | 2.74 pM | 4.27 pM | 5.7 pM | 238 pM | 485 pM | 166 pM
5 | Compound 15 (peptide) peptide: H[Aib]HGTFTSDYSILLEEQAAREFIEWLLAGGPSK([AEEA-AEEA-γGlu-C18 diacid])GAPPPSGGGEASELSTAALGRLSAELHELATLPRTETGSGSP-NH2 | – | 1.41 pM | 3.2 pM | 5.01 pM | 103 pM | 356 pM | 82.2 pM
6 | Compound 17 (peptide) peptide: H[Aib]HGTFTSDYSILLEEQAAREFIEWLLAGGPSK([AEEA-AEEA-γGlu-C16 diacid])GEASELSTAALGRLSAELHRLATLPRTETGSGSP-NH2 | – | 2.72 pM | 5.04 pM | 5.13 pM | 13.1 pM | 36.9 pM | 33.6 pM

Continued, values first:

Row | Purity loss per week at 37° C. [1] | hGLP-1R Potency, no HSA, EC50 [pM] (human GLP-1 receptor [2]) | hGIPR Potency, no HSA, EC50 [pM] (human GIP receptor [3]) | hAMYR3 Potency, no HSA, EC50 [pM] [4] | hGLP-1R Potency, 1% HSA, EC50 [pM] (human GLP-1 receptor [5]) | hGIPR Potency, 1% HSA, EC50 [pM] (human GIP receptor [6]) | hAMYR3 Potency, 1% HSA, EC50 [pM] [7] | Molecule
7 | 1.0% | – | – | – | – | – | – | CC[C@H](C)[C@H](NC(=O)[C@H](CCC(=O)O)NC(=O)[C@H](CCC(=O)O)NC(=O)[C@H](CC(C)C)NC(=O)[C@H](CC(C)C)NC(=O)[C@@H](NC(=O)[C@H](CO)NC(=O)[C@H](Cc1ccc(O)cc1)NC(=O)[C@H](CC(=O)O)NC(=O)[C@H](CO)NC(=O)[C@@H](NC(=O)[C@H](Cc1ccccc1)NC(=O)[C@@H](NC(=O)CNC(=O)[C@H](CCC(=O)O)NC(=O)C(C)(C)NC(=O)[C@@H](N)Cc1ccc(O)cc1)[C@@H](C)O)[C@@H](C)O)[C@@H](C)CC)C(=O)N[C@@H](C)C(=O)N[C@@H](C)C(=O)N[C@@H](CCCNC(=N)N)C(=O)N[C@@H](CCC(=O)O)C(=O)N[C@@H](Cc1ccccc1)C(=O)N[C@H](C(=O)N[C@@H](CCC(=O)O)C(=O)N[C@@H](Cc1c[nH]c2ccccc12)C(=O)N[C@@H](CC(C)C)C(=O)N[C@@H](CC(C)C)C(=O)N[C@@H](C)C(=O)NCC(=O)NCC(=O)N1CCC[C@H]1C(=O)N[C@@H](CO)C(=O)N[C@@H](CO)C(=O)NCC(=O)N[C@@H](CCC(=O)O)C(=O)NCC(=O)N[C@@H](CCC(N)=O)C(=O)N[C@@H](C)C(=O)N1CCC[C@H]1C(=O)NCC(=O)N[C@@H](CCC(N)=O)C(=O)N[C@@H](C)C(=O)N1CCC[C@H]1C(=O)NCC(=O)N[C@@H](C)C(=O)N[C@@H](CO)C(=O)N[C@@H](Cc1c[nH]cn1)C(=O)N[C@@H](CC(C)C)C(=O)N[C@@H](CO)C(=O)N[C@H](C(=O)N[C@@H](C)C(=O)N[C@@H](CCC(N)=O)C(=O)N[C@H](C(=O)N[C@@H](CCC(N)=O)C(=O)N[C@@H](CCCNC(=N)N)C(=O)N[C@@H](CC(C)C)C(=O)N[C@@H](CO)C(=O)N[C@@H](C)C(=O)N[C@@H](CCC(=O)O)C(=O)N[C@@H](CC(C)C)C(=O)N[C@@H](Cc1c[nH]cn1)C(=O)N[C@@H](CCCCNC(=O)COCCOCCNC(=O)COCCOCCNC(=O)CC[C@H](NC(=O)CCCCCCCCCCCCCCCCCCC(=O)O)C(=O)O)C(=O)N[C@@H](CC(C)C)C(=O)N[C@@H](C)C(=O)N[C@H](C(=O)N[C@@H](CC(C)C)C(=O)N1CCC[C@H]1C(=O)N[C@@H](CCCNC(=N)N)C(=O)N[C@H](C(=O)N[C@@H](CCC(=O)O)C(=O)N[C@H](C(=O)NCC(=O)N[C@@H](CO)C(=O)NCC(=O)N[C@@H](CO)C(=O)N1CCC[C@H]1C(N)=O)[C@@H](C)O)[C@@H](C)O)[C@@H](C)O)[C@@H](C)O)[C@@H](C)O)[C@@H](C)CC [Compound 147]
8 | – | 14.4 pM | 2.02 pM | 2.53 pM | 57.5 pM | 8.96 pM | 136 pM | Compound 113 (peptide) peptide: Y[Aib]EGTFTSDYSILLEEQAAREFIEWLLAGGPSSGAGQAPGQAPGASHLSTAQTARLSAELHK([AEEA-AEEA-γGlu-C18 diacid])LATLPRTETGSGSP-NH2
9 | – | 43.3 pM | 4.29 pM | 2.27 pM | 126 pM | 17.2 pM | 45.2 pM | Compound 114 (peptide) peptide: Y[Aib]EGTFTSDYSILLEEQAAREFIEWLLAGGPSSGAGQAPGQAPGASHLSTAALARLSAELHK([AEEA-AEEA-γGlu-C18 diacid])LATLPRTETGSGSP-NH2
10 | – | 4.37 pM | 2.42 pM | 3.65 pM | 336 pM | 321 pM | 269 pM | Compound 112 (peptide) peptide: H[Aib]HGTFTSDYSILLEEQAAREFIEWLLAGGPSK([γGlu-C18 diacid])GAPPPSGGGEASHLSTAQTARLSAELHRLADLPRTETGSGSP-NH2
